Data published in US6858210B1, “Therapeutic and diagnostic domain 1 β2GPI polypeptides and methods of using same” (La Jolla Pharmaceutical Co., priority 1998, dated 2005).
Read-outs that look alike come from different tables or passages of the source.

How the values were obtained:
[1] = test system: rabbit anti-human β2GPI; experiment: Micropanning of mutant domain 1 phage, rabbit antibody; format: binding; set-up: key: 0 (<10 colonies) to 4+ (confluent) semiquantitative colony score; conditions: for Micropan score: Table 7B; for μpan score: Table 7A
Protocol: Error prone PCR was carried out as follows. Domain 1 of human β2GPI was amplified by PCR under conditions that enhance the error rate of Taq polymerase. The primers were such that amino acids 1-64 were amplified. A Sfc 1 restriction site was incorporated as part of amino acid 1. At the 3′ end a Sal 1 restriction site was incorporated after amino acid 64. The PCR reaction was done as described by Leung et al. (1989) Technique 1:11, using 0.25 mM MnCl2. The PCR product was digested with Sfc 1 and Sal 1 and cloned into fd-tet-DOG2 that had been digested with Apal 1 and Sal 1. This positions domain 1 at the N-terminus of pill immediately after the pill signal sequence. The ligation reaction was electroporated in E. coli K91. Phage were harvested and titered by standard methods. Resulting phage clones were assayed using a micropanning technique.
Immulon type 2 plates were coated with protein G. Protein G was prepared at 5 μg/mL in 0.1 M NaHCO3 and 100 μL per well was added to the wells of microtitration plates and incubated overnight at 4° C. After discarding excess protein G solution from plates, each well was blocked with 200 μL 2YT for 1 hour at RT with agitation on an oscillating platform. Tris-buffered saline, pH 7.4/0.5% Tween 20 (TBS/Tween), was used with an automatic plate washer to wash the wells 4 times with 200 μL. One hundred μL human β2GPI-dependent antiphospholipid 6626, 6501, 6701, rabbit β2GPI-dependent antiphospholipid, or control normal IgG, diluted to 2.5 μg/mL with 2YT, was added to washed wells. The plate was incubated for 1 hour at room temperature on a rotating platform.
Phage to be tested by micropanning were obtained from the agar plates generated by biopanning. Each clone to be tested was transferred using sterile toothpicks to a separate well of a round-bottom 96-well microtitration plate (Corning, Corning, N.Y.) containing 200 μL 2YT/Tet per well and cultured overnight at 30° C. Following overnight incubation, phage cultures were centrifuged using a microtitration plate holder at 1300×g for 10 minutes at room temperature. Supernatants constituted the source of “neat” phage. The neat phage were diluted 1: 100-1:1000 and 100 μL was added to the plate containing protein G-bound β2GPI-dependent antiphospholipid antibody-6501 and normal IgG prepared as described above. The incubation of dilute phage with aPL antibody or control IgG was carried out for 2 hours at room temperature on a flat rotator. After 9 washes with TBS/Tween in an automated plate washer, the IgG-bound phage was eluted with 20 μL of 0.2 N HCl-glycine/0.1% BSA, pH 2.2. The elution incubation continued for 10 minutes at RT, during which time a new Corning microtitration plate was prepared containing 20 μL of freshly starved E. coli per well and kept chilled. One hundred forty μL of 29 mM Tris was added to the plate containing the phage eluates in order to neutralize the pH, following which 20 μL of phage suspension was transferred from each well to the corresponding well in the plate containing starved E. coli. After a 10 minute incubation at 37° C., 200 μL 2YT was added and incubation carried out an additional 30 minutes at 37° C. Using multichannel pipettors, 8 μL from each well was spotted on a large 2YT/Tet agar plate while retaining the original 8×12 well pattern and orientation from the last microtitration plate. After allowing the spots to dry for 30 minutes, the plate was incubated overnight at 30° C. The following day, colonies were semiquantitatively scored from 0 to 4+, with 0 symbolizing <10 colonies; 1+=10-30; 2+=30 colonies to 70% confluent; 3+=70%-90% confluent; 4+=confluent.
For Table 7A, the rabbit anti-human β2GPI was performed on two separate occasions. Mutations are listed with the original amino acid, the position number, and the identity of the amino acid at that position in the mutant. […] Non-mutated domain 1 have a score of 3+, while domain 5 phage gave a score of −. Silent mutations are not shown. […]

[2] = test system: human β2GPI-dependent antiphospholipid antibody; experiment: Micropanning of mutant domain 1 phage, patient antibodies; format: binding; conditions: for Micropan score: Table 7B
[3] = test system: affinity purified β2GPI-dependent antiphospholipid antibody; experiment: Direct binding ELISA, nickel chelate-coated wells charged with recombinant β2GPI proteins (no cardiolipin); set-up: species or system human; conditions: O.D. at 550 nm
Protocol: Nickel Chelate-coated microwell plates (NCP 010 00 Xenopore Corp. 374 Midland Ave. Saddle Brook, N.J. USA) were coated with 50 μl of serial dilutions of the various recombinant β2GPI, in PBS, at room temperature for 2 hours. The plates were washed three times with PBS and blocked with 75 μl of a 1% gelatin (Sigma #G-2500) in PBS for one hour room temperature. […] The plates were washed three times with PBS, 50 μl of alkaline phosphatase conjugated anti-immunoglobulin (anti-human IgG, gamma chain specific, Zymed #62-8422) or anti-rabbit IgG (Zymed #62-6122) diluted appropriately in 1% gelatin was added and incubated at 37° C. for one hour. The plates were washed three times with PBS, 50 μl of alkaline phosphatase PPMP chromogenic substrate solution was added and incubated for 30 minutes at room temperature. The optical density, at 550 nm, was determined by reading the plates in a microplate autoreader (Bio-Teck Instruments, model EL311).
Seven to nine different recombinant β2GPI mutant proteins were examined to determine if they could support the direct binding of affinity purified β2GPI-dependent antiphospholipid antibody preparations in the absence of anionic phospholipid. All recombinant mutant β2GPI were assayed with affinity purified β2GPI-dependent antiphospholipid antibody preparations from 11 different patients. Each mutant recombinant β2GPI protein was tested, in a dose dependent fashion and GST-6his was included as a negative control. The recombinant mutant β2GPI proteins were bound to nickel coated microtiter plates via their 6-his tail. All recombinant mutant β2GPI proteins tested bound rabbit anti-β2GPI showing that they were assessable by antibody (FIG. 5).

[4] = test system: affinity purified β2GPI-dependent antiphospholipid antibody; experiment: Competitive inhibition ELISA: recombinant β2GPI proteins compete for antibody binding to coated full length recombinant β2GPI; set-up: species or system human; conditions: for IC50: read-out: 50% (concentration to give 50% inhibition)
Protocol: Microtiter plates (MaxiSorp™, Nalge Nunc International, Denmark) were coated with 50 μl of full length recombinant β2GPI at 10 μg/ml in 0.1 M bicarbonate, pH 9.5, incubated overnight at 4° C., washed three times with 0.15 M PBS, pH 7.2, and blocked for one hour at room temperature with 75 μl of 2% Non-fat Dried Milk (Carnation, 2% NFDM). Test inhibitors were diluted in 2% NFDM and 25 μl of each dilution was added to coated wells. Affinity purified β2GPI-dependent antiphospholipid antibody was diluted in 2% NFDM and 25 μl, of a constant concentration, was added to the wells, including a group of wells that had no inhibitor, which acted as the positive controls. The contents of the wells were mixed and the plates were incubated at 37° C. for one hour. The plates were washed three times with PBS, 50 μl of alkaline phosphatase conjugated anti-human IgG, gamma chain specific, (Zymed #62-8422) diluted appropriately in 2% NFDM was added and incubated at 37° C. for one hour. The plates were washed three times with PBS, 50 μl of alkaline phosphatase PPMP chromogenic substrate solution was added and incubated for 30 minutes, at room temperature. The Optical Density, at 550 nm, was determined by reading the plates in a microplate autoreader (Bio-Teck Instruments, model EL3 11). The percent inhibition was determined by dividing the OD550 obtained in the presence of inhibitor by the mean OD550 obtained from the wells without inhibitor and then multiplying by 100 (more particularly, [mean A550 obtained from control wells without inhibitor less A550 of background] minus [A550 obtained in presence of inhibitor less A550 of background] divided by [mean A550 obtained from control wells without inhibitor less A550 of background] times 100).
Seven to nine different recombinant β2GPI mutant proteins were used to determine the antigenic specificity of affinity purified β2GPI-dependent antiphospholipid antibody preparations from 13 different patients. Each mutant recombinant β2GPI protein was tested, in a dose dependent fashion, for its ability to inhibit affinity purified β2GPI-dependent antiphospholipid antibody from binding to full length recombinant β2GPI. The following values were also observed for domain 1 only recombinant protein (1 - - - -; see Table 2 for designations): […]

B1: Dom1: phage displaying wild type (WT) domain 1 (protein)
chain: GRTCPKPDDLPFSTVVPLKTFYEPGEEITYSCKPGYVSRGGMRKFICPLTGLWPINTLKCTPRV
Micropan score ([1]; 1st column): 4
Micropan score ([1]; 2nd column): 4
Micropan score ([1]; 3rd column): 4
Micropan score ([1]; 4th column): 4
Micropan score ([1]; 5th column): 4
Micropan score ([2]; antibody 6226): 4
Micropan score ([2]; antibody 6501): 4
Micropan score ([2]; antibody 6632): 4
Micropan score ([2]; antibody 6644): 4
Micropan score ([2]; antibody 6701): 4
Micropan score ([2]; antibody 7008): 4
μpan score ([2]; control phage for Table 7A, antibody not stated): 3+ (3+=70%-90% confluent)

B2: 2A1: phage clone, domain 1 mutant T20S (protein)
chain: GRTCPKPDDLPFSTVVPLKSFYEPGEEITYSCKPGYVSRGGMRKFICPLTGLWPINTLKCTPRV
μpan score ([1]; first (or only) value): 3
Micropan score ([1]; 1st column): 4
Micropan score ([1]; 2nd column): 4
Micropan score ([1]; 3rd column): 4
Micropan score ([1]; 4th column): 4
μpan score ([2]; Table 7A, antibody 6501): 3
μpan score ([2]; Table 7A, antibody 6626): 3
μpan score ([2]; Table 7A, antibody 6701): 3
Micropan score ([2]; antibody 6226): 4
Micropan score ([2]; antibody 6501): 4
Micropan score ([2]; antibody 6632): 4
Micropan score ([2]; antibody 6644): 4
Micropan score ([2]; antibody 6701): 4
Micropan score ([2]; antibody 7008): 4

B3: 2B2: phage clone, domain 1 mutant V37E (protein)
chain: GRTCPKPDDLPFSTVVPLKTFYEPGEEITYSCKPGYESRGGMRKFICPLTGLWPINTLKCTPRV
μpan score ([1]; first (or only) value): 3
Micropan score ([1]; 1st column): 4
Micropan score ([1]; 2nd column): 4
Micropan score ([1]; 3rd column): 4
Micropan score ([1]; 4th column): 4
μpan score ([2]; Table 7A, antibody 6501): 3
μpan score ([2]; Table 7A, antibody 6626): 3
μpan score ([2]; Table 7A, antibody 6701): 3
Micropan score ([2]; antibody 6226): 4
Micropan score ([2]; antibody 6501): 4
Micropan score ([2]; antibody 6632): 4
Micropan score ([2]; antibody 6644): 4
Micropan score ([2]; antibody 6701): 4
Micropan score ([2]; antibody 7008): 4

B4: D11: phage clone, domain 1 mutant N56D (protein)
chain: GRTCPKPDDLPFSTVVPLKTFYEPGEEITYSCKPGYVSRGGMRKFICPLTGLWPIDTLKCTPRV
μpan score ([1]; first (or only) value): 2
μpan score ([1]; second value (second occasion)): 3

B5: 3F8: phage clone, domain 1 mutant T50A (protein)
chain: GRTCPKPDDLPFSTVVPLKTFYEPGEEITYSCKPGYVSRGGMRKFICPLAGLWPINTLKCTPRV
Micropan score ([2]; antibody 6226): 2
Micropan score ([2]; antibody 6501): 2
Micropan score ([2]; antibody 6632): 2
Micropan score ([2]; antibody 6644): 3
Micropan score ([2]; antibody 6701): 2
Micropan score ([2]; antibody 7008): 3

B6: 12---: recombinant β2GPI deletion mutant with domains 1 and 2 (protein)
chain: GRTCPKPDDLPFSTVVPLKTFYEPGEEITYSCKPGYVSRGGMRKFICPLTGLWPINTLKCTPRVCPFAGILENGAVRYTTFEYPNTISFSCNTGFYLNGADSAKCTEEGKWSPELPVCAPIIGHHHHHH
Maximum O.D. ([3]; Ab 6203): 0.119
Maximum O.D. ([3]; Ab 6501): 0.028
Maximum O.D. ([3]; Ab 6626): 0.073
Maximum O.D. ([3]; Ab 6632): 0.016
Maximum O.D. ([3]; Ab 7008): 0.008
Maximum O.D. ([3]; Ab 7015): 0.063
Max (maximum inhibition observed at concentrations tested) ([4]; Ab 6203): 20%
IC50 ([4]; Ab 6203): > 10 µM
Max (maximum inhibition observed at concentrations tested) ([4]; Ab 6501): 30%
IC50 ([4]; Ab 6501): > 10 µM
Max (maximum inhibition observed at concentrations tested) ([4]; Ab 6626): 50%
IC50 ([4]; Ab 6626): > 10 µM
Max (maximum inhibition observed at concentrations tested) ([4]; Ab 6632): 70%
IC50 ([4]; Ab 6632): 3 µM
Max (maximum inhibition observed at concentrations tested) ([4]; Ab 6644): 45%
IC50 ([4]; Ab 6644): > 10 µM
Max (maximum inhibition observed at concentrations tested) ([4]; Ab 7008): 40%
IC50 ([4]; Ab 7008): > 10 µM
Max (maximum inhibition observed at concentrations tested) ([4]; Ab 7015): 30%
IC50 ([4]; Ab 7015): > 10 µM
Max (maximum inhibition observed at concentrations tested) ([4]; Ab 7101): 20%
IC50 ([4]; Ab 7101): > 10 µM
Max (maximum inhibition observed at concentrations tested) ([4]; Ab 7104): 90%
IC50 ([4]; Ab 7104): 1 µM
